Test results published in patent publication US20250262210A1 (TRUSTEES OF COLUMBIA UNIVERSITY IN THE CITY OF NEW YORK, published 2025).

Experiments:
Assay in all cases: IP/MS, LZTR1 wild type-FLAG, U87
CDK5RAP2 = CDK5RAP2 (human, UniProt Q96SN8 1-1893, limits assumed)
Method in brief: (§1)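 Extracted peptides in 3% acetonitrile/0.1% formic acid ran on a 50 cm C18 column into an Orbitrap Fusion, with MaxQuant identification and spectral counting.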

ABR = molecular target: T1, ABR (human, UniProt Q12979 1-859, limits assumed)
T1 sequence (looked up): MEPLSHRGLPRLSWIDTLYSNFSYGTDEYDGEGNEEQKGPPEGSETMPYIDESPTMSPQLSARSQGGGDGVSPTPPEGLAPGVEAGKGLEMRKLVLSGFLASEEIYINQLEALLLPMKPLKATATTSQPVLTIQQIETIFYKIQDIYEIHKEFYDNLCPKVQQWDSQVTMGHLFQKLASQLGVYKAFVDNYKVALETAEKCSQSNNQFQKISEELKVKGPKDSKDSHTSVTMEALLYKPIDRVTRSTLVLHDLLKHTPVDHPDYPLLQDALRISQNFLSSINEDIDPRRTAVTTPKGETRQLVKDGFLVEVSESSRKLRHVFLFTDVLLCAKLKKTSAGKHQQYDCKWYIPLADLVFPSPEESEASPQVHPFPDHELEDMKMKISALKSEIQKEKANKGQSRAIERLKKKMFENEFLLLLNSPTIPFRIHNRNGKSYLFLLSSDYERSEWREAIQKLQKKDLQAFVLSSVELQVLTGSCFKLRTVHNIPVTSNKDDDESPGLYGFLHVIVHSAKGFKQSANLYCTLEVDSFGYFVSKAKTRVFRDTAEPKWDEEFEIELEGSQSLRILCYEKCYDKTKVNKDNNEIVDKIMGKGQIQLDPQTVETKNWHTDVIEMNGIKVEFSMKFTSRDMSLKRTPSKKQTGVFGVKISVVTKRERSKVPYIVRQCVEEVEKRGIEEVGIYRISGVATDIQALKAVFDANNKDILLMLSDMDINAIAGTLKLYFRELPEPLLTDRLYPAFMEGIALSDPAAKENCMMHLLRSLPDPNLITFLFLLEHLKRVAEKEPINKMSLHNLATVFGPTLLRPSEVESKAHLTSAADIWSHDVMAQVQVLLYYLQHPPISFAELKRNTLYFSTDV
Method in brief: as §1

TRIM16 = TRIM16 (human, UniProt O95361 1-564, limits assumed)
Method in brief: as §1

MED24 = molecular target: T2, MED24 (human, UniProt O75448 1-989, limits assumed)
T2 sequence (looked up): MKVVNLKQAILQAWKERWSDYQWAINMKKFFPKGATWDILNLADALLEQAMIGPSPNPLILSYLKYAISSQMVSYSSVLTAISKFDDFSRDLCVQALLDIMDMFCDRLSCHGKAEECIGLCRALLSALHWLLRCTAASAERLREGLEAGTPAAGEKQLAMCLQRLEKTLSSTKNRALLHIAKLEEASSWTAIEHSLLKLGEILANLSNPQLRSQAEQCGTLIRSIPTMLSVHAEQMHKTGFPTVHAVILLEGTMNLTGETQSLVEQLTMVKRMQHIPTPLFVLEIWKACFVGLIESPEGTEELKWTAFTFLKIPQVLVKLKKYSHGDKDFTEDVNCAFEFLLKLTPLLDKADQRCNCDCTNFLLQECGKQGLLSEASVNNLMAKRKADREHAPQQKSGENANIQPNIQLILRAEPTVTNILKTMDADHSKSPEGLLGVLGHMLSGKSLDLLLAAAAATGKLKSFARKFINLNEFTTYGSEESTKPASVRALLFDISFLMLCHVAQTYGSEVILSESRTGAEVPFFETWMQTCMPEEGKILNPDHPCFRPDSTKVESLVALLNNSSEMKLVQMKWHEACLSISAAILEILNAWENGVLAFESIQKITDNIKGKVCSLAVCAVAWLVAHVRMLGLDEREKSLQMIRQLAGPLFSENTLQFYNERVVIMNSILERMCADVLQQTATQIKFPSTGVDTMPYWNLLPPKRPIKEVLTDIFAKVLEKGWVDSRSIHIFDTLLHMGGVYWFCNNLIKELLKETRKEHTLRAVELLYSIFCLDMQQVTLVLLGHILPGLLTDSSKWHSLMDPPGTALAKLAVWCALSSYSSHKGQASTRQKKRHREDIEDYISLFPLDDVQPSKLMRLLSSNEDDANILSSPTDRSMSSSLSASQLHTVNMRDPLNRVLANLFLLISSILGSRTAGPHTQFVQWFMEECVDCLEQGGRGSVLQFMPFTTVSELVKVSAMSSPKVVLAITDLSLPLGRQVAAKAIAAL
Method in brief: as §1

KNL1 = KNL1 (human, UniProt Q8NG31 1-2342, limits assumed)
Method in brief: as §1

Measured: binding result

Sequence of KNL1 (Q8NG31 whole entry): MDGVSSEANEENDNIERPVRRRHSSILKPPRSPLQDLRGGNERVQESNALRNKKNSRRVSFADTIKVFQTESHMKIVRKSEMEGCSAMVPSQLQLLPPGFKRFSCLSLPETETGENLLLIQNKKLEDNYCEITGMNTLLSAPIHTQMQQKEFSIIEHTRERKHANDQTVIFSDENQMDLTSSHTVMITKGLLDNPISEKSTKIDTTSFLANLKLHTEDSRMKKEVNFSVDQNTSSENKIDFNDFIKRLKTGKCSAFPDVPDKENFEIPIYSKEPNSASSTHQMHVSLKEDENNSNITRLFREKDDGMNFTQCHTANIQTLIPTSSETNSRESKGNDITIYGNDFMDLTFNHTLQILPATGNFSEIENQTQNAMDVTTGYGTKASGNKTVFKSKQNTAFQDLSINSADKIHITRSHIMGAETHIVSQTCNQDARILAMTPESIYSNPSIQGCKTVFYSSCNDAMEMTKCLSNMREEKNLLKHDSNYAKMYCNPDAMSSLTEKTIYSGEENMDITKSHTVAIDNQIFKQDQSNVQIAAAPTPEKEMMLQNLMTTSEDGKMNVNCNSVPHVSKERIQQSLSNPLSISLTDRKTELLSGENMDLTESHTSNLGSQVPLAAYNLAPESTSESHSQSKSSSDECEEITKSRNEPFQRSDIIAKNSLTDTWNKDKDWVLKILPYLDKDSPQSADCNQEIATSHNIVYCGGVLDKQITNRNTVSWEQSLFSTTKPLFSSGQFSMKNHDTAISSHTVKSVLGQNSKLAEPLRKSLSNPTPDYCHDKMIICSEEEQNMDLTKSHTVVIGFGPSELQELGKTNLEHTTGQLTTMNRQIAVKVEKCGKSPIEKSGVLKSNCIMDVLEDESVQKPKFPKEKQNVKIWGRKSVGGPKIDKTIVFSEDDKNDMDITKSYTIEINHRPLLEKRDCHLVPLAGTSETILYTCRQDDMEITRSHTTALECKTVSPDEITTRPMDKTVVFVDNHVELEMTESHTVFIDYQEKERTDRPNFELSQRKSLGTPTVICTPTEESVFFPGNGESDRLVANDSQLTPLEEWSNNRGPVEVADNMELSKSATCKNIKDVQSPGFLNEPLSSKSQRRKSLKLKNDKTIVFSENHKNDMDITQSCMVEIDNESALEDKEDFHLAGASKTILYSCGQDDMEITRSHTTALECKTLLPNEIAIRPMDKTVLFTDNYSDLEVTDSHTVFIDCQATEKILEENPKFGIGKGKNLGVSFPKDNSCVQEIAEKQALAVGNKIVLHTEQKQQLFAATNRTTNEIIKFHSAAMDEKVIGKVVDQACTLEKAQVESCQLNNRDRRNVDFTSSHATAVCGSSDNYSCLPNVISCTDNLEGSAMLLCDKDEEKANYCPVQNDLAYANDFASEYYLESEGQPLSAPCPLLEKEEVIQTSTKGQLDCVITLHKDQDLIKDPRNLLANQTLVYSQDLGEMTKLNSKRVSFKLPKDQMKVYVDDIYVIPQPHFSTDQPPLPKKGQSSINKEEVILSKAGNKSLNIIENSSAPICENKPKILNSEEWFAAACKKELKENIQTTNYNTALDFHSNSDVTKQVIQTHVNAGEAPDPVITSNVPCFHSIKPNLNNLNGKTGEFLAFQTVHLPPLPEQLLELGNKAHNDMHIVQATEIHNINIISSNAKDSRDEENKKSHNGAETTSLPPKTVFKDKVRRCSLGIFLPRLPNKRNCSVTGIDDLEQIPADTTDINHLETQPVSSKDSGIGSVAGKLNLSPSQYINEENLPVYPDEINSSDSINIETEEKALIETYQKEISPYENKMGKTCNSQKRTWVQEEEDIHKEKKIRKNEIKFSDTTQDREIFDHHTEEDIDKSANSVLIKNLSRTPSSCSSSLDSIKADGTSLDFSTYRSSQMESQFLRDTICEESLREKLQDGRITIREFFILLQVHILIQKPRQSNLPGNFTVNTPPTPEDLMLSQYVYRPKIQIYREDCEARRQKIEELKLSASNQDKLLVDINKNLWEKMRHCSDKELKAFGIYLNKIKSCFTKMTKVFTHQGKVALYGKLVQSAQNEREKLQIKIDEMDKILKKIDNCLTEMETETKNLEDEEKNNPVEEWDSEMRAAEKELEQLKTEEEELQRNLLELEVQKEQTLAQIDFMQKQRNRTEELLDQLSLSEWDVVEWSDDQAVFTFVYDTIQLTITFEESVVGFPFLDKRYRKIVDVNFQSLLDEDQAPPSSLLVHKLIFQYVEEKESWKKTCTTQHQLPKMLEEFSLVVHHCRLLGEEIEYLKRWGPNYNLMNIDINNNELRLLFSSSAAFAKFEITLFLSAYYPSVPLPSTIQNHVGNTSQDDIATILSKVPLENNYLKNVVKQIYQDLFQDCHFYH
Sequence of CDK5RAP2 (Q96SN8 whole entry, the tested form may be a part): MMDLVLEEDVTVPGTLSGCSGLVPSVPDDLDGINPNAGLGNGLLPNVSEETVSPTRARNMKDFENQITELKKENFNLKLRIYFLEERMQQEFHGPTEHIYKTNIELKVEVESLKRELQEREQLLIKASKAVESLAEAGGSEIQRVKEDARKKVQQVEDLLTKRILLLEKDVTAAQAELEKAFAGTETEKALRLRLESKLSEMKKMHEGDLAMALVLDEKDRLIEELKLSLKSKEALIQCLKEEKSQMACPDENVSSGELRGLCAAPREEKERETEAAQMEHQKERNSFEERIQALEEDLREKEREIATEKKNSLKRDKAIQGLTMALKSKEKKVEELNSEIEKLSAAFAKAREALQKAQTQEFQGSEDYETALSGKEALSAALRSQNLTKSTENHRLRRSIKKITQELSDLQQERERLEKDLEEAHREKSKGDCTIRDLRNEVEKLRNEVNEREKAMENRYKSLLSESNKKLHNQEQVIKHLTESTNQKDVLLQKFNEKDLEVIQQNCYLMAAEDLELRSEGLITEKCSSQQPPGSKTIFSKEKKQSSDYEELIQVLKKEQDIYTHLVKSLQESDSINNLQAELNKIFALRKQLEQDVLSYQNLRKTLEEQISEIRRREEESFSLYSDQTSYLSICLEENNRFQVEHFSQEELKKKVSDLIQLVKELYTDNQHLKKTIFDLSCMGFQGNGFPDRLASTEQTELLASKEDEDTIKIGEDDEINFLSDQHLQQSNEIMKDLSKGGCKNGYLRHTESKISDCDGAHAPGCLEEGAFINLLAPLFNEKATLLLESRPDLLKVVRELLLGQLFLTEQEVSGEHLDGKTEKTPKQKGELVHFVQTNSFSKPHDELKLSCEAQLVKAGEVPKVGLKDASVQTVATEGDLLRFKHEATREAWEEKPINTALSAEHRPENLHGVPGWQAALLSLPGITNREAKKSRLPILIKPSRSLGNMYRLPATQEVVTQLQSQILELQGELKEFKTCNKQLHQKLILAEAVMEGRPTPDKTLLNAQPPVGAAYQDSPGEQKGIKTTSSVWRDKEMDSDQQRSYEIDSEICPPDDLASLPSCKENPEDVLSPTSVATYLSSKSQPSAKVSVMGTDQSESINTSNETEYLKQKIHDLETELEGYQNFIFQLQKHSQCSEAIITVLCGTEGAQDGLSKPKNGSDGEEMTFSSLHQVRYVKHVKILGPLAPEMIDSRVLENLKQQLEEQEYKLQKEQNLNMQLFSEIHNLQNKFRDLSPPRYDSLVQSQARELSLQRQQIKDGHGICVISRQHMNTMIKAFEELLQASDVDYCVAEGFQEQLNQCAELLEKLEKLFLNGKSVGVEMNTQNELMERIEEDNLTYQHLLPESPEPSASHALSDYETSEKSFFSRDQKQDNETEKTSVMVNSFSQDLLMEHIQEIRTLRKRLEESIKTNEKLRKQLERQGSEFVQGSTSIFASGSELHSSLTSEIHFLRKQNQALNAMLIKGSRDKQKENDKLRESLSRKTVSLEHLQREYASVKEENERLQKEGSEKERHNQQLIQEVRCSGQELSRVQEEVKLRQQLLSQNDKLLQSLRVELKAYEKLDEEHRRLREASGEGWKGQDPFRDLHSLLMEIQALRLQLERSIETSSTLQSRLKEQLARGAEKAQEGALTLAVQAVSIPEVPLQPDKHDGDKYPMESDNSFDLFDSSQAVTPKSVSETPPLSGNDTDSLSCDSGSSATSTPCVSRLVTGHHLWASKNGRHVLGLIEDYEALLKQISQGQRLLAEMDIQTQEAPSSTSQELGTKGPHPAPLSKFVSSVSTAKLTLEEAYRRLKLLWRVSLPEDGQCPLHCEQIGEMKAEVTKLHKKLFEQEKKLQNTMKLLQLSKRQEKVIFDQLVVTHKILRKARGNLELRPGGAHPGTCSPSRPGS

B1: LZTR1-FLAG (other, human, UniProt Q8N653 1-840, looked up)
chain: MAGPGSTGGQIGAAALAGGARSKVAPSVDFDHSCSDSVEYLTLNFGPFETVHRWRRLPPCDEFVGARRSKHTVVAYKDAIYVFGGDNGKTMLNDLLRFDVKDCSWCRAFTTGTPPAPRYHHSAVVYGSSMFVFGGYTGDIYSNSNLKNKNDLFEYKFATGQWTEWKIEGRLPVARSAHGATVYSDKLWIFAGYDGNARLNDMWTIGLQDRELTCWEEVAQSGEIPPSCCNFPVAVCRDKMFVFSGQSGAKITNNLFQFEFKDKTWTRIPTEHLLRGSPPPPQRRYGHTMVAFDRHLYVFGGAADNTLPNELHCYDVDFQTWEVVQPSSDSEVGGAEVPERACASEEVPTLTYEERVGFKKSRDVFGLDFGTTSAKQPTQPASELPSGRLFHAAAVISDAMYIFGGTVDNNIRSGEMYRFQFSCYPKCTLHEDYGRLWESRQFCDVEFVLGEKEECVQGHVAIVTARSRWLRRKITQARERLAQKLEQEAAPVPREAPGVAAGGARPPLLHVAIREAEARPFEVLMQFLYTDKIKYPRKGHVEDVLLIMDVYKLALSFQLCRLEQLCRQYIEASVDLQNVLVVCESAARLQLSQLKEHCLNFVVKESHFNQVIMMKEFERLSSPLIVEIVRRKQQPPPRTPLDQPVDIGTSLIQDMKAYLEGAGAEFCDITLLLDGHPRPAHKAILAARSSYFEAMFRSFMPEDGQVNISIGEMVPSRQAFESMLRYIYYGEVNMPPEDSLYLFAAPYYYGFYNNRLQAYCKQNLEMNVTVQNVLQILEAADKTQALDMKRHCLHIIVHQFTKVSKLPTLRSLSQQLLLDIIDSLASHISDKQCAELGADI
notes: Expressed in HEK 293T, HeLa or U87 cells; used as cell lysate; also called LZTR1 wild type-FLAG; LZTR1 WT; not shown: FLAG tag at the C-terminus
binds: all assays above
